The target of assay [1] is T1, human trkC (human, UniProt Q16288 32-429, limits assumed).
T1 construct: also called htrkC
The experiment in a line: BIAcore (SPR); format not stated; human trkC. (SPR reads the build-up and loss of mass on a sensor chip optically.)

Assay [2] addresses rat trkC (rat, UniProt Q03351 32-429, limits assumed). The experiment in a line: BIAcore (SPR); format not stated; rat trkC.
Assay [3] concerns the target T1, human trkC. The experiment in a line: BIAcore (SPR); format not stated.

As a reminder, the Kd is the constant that tells how readily two partners part at equilibrium.

B1: humanized anti-trkC agonist antibody A5 (antibody, V domains shown)
VH: QVQLVQSGAEVKKPGASVKVSCKASGYTFTSYRIHWVRQAPGQGLEWMGEIYPSNARTNYNEKFKSRVTMTRDTSTSTVYMELSSLRSEDTAVYYCARKYYYGNTRRSWYFDVWGQGTTVTVS
VL: DIQMTQSPSSLSASVGDRVTITCRASESIDNYGISFLAWYQQKPGKAPKLLIYAASNRGSGVPSRFSGSGSGTDFTFTISSLQPEDIATYYCQQSKTVPRTFGQGTKLEIKR
In the case of B1, the Kd in assay [1] was ~0.28 nM; in assay [2] it was ~19 nM.

B2: mouse anti-trkC agonist monoclonal antibody 2256 (antibody, V domains shown)
VH: QVQLQQPGAELVKPGASVKLSCKASGYTFTSYWMHWVKQRPGQGLEWIGEIYPSNGRTNYNEKFKSKATLTVDKSSSTAYMQLSSLTSEDSAVYYCARKYYYGNSYRSWYFDVWGAGTTLTVS
VL: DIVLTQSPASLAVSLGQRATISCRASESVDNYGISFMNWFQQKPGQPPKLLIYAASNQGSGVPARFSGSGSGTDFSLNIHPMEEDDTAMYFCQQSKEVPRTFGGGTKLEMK
In the case of B2, in assay [3], the Kd is ~40 nM.

Values taken from patent US20070014786A1 (RINAT NEUROSCIENCE, published 2007).
